Laboratory results reported in the Human Domainome abundance scans (Beltran et al. 2025).
± gives the uncertainty stated by the source.

B1: Transcription factor SOX-11, residues 50 to 117; numbered along this chain, P35716 (parent)
chain: KRPMNAFMVWSKIERRKIMEQSPDMHNAEISKRLGKRWKMLKDSEKIPFIREAERLRLKHMADYPDYK

Variants of: B1
Assay: abundance fitness (aPCA) (normalised: wild type 0, dead -1); higher = more abundant; growth selection in yeast, the domain comes from the species named
Settings: Homo sapiens

Row | Variant | abundance fitness
1 | E20I | -0.569 ± 0.085
2 | E20P | -0.812 ± 0.16
3 | E20N | -0.236 ± 0.08
4 | E20Q | -0.83 ± 0.34
5 | E20S | -0.36 ± 0.063
6 | E20L | -0.27 ± 0.079
7 | S22H | 0.052 ± 0.062
8 | S22I | -0.539 ± 0.066
9 | S22Y | 0.165 ± 0.046
10 | S22R | -0.513 ± 0.091
11 | S22W | -0.024 ± 0.1
12 | S22G | -0.587 ± 0.075
13 | S22L | -0.522 ± 0.076
14 | S22M | -0.302 ± 0.12
15 | S22V | -0.442 ± 0.064
16 | S22Q | -0.09 ± 0.14
17 | S22T | -0.072 ± 0.064
18 | S22E | -0.112 ± 0.11
19 | S22A | -0.061 ± 0.066
20 | S22F | 0.118 ± 0.049
21 | S22D | 0.042 ± 0.059
22 | S22P | -0.841 ± 0.16
23 | S22K | -0.352 ± 0.19
24 | I30G | -0.67 ± 0.089

Row | Variant | abundance fitness
25 | I30K | -1.09 ± 0.26
26 | I30Y | -0.596 ± 0.065
27 | I30S | -0.682 ± 0.071
28 | I30M | -0.711 ± 0.17
29 | I30N | -0.701 ± 0.092
30 | I30R | -0.879 ± 0.11
31 | I30C | -0.304 ± 0.053
32 | I30Q | -0.797 ± 0.23
33 | I30P | -0.708 ± 0.13
34 | I30W | -0.611 ± 0.14
35 | I30H | -0.733 ± 0.097
36 | I30V | 0.039 ± 0.051
37 | I30D | -0.779 ± 0.11
38 | E14F | -0.645 ± 0.088
39 | E14T | -1.16 ± 0.2
40 | E14V | -0.895 ± 0.084
41 | E14D | -0.861 ± 0.12
42 | E14A | -0.615 ± 0.076
43 | E14C | -0.533 ± 0.11
44 | E14W | -0.734 ± 0.45
45 | E14N | -0.338 ± 0.089
46 | E14L | -1.05 ± 0.14
47 | E14Y | -0.696 ± 0.11
48 | E14G | -0.771 ± 0.089

Row | Variant | abundance fitness
49 | E14M | -0.352 ± 0.17
50 | E14K | -0.953 ± 0.41
51 | E14I | -0.722 ± 0.11
52 | E14S | -0.488 ± 0.067
53 | E14Q | -0.247 ± 0.19
54 | E14H | -0.577 ± 0.13
55 | E14P | -0.739 ± 0.22
56 | P23M | -0.85 ± 0.24
57 | P23K | -1.28 ± 0.44
58 | P23E | -0.49 ± 0.19
59 | P23R | -0.74 ± 0.091
60 | P23Y | -0.665 ± 0.09
61 | P23L | -0.287 ± 0.068
62 | P23D | -0.739 ± 0.093
63 | P23S | -0.453 ± 0.058
64 | P23N | -0.843 ± 0.11
65 | P23Q | -0.706 ± 0.24
66 | P23W | -1.09 ± 0.24
67 | P23H | -0.791 ± 0.1
68 | P23G | -0.431 ± 0.064
69 | P23V | -0.598 ± 0.07
70 | P23I | -0.869 ± 0.095
71 | P23A | -0.391 ± 0.079
72 | K12P | -0.746 ± 0.18

Row | Variant | abundance fitness
73 | K12N | 0.014 ± 0.064
74 | K12E | 0.359 ± 0.14
75 | K12I | -0.099 ± 0.059
76 | K12M | -0.043 ± 0.25
77 | K12C | -0.131 ± 0.07
78 | K12S | 0.074 ± 0.053
79 | K12V | 0.012 ± 0.05
80 | K12W | -0.89 ± 0.32
81 | K12A | 0.175 ± 0.062
82 | K12H | -0.006 ± 0.064
83 | K12Q | 0.007 ± 0.19
84 | K12T | -0.119 ± 0.08
85 | K12F | -0.232 ± 0.067
86 | K12G | -0.2 ± 0.062
87 | K12Y | -0.448 ± 0.078
88 | K12L | -0.016 ± 0.074
89 | K17H | -0.47 ± 0.08
90 | K17G | -0.756 ± 0.1
91 | K17A | -0.484 ± 0.096
92 | K17P | -0.566 ± 0.13
93 | K17V | -0.6 ± 0.085
94 | K17I | -0.403 ± 0.065
95 | K17M | -0.533 ± 0.21
96 | K17C | -0.527 ± 0.075

Row | Variant | abundance fitness
97 | K17Q | -0.199 ± 0.39
98 | K17F | -0.531 ± 0.065
99 | K17L | -0.373 ± 0.078
100 | K17W | -1.17 ± 0.34
101 | K17S | -0.518 ± 0.067
102 | K17N | -0.407 ± 0.061
103 | K17Y | -0.564 ± 0.075
104 | K17T | -0.458 ± 0.093
105 | I18A | -0.521 ± 0.11
106 | I18W | -0.256 ± 0.11
107 | I18R | -0.945 ± 0.12
108 | I18P | -0.619 ± 0.21
109 | I18D | -0.741 ± 0.12
110 | I18N | -0.625 ± 0.097
111 | I18S | -0.732 ± 0.083
112 | I18T | -0.884 ± 0.17
113 | I18Y | -0.34 ± 0.075
114 | I18H | -0.918 ± 0.17
115 | I18Q | -0.869 ± 0.33
116 | I18C | -0.714 ± 0.1
117 | I18E | -0.355 ± 0.17
118 | I18G | -0.772 ± 0.075
119 | I18F | -0.688 ± 0.1
120 | I18V | -0.307 ± 0.059

Row | Variant | abundance fitness
121 | I18K | -0.856 ± 0.29
122 | R16Q | 0.199 ± 0.21
123 | R16V | 0 ± 0.054
124 | R16G | -0.105 ± 0.056
125 | R16H | -0.001 ± 0.069
126 | R16D | -0.036 ± 0.075
127 | R16M | -0.667 ± 0.21
128 | R16W | -0.956 ± 0.4
129 | R16F | -0.319 ± 0.058
130 | R16S | -0.134 ± 0.049
131 | R16E | 0.082 ± 0.15
132 | R16T | -0.212 ± 0.075
133 | R16P | -0.089 ± 0.1
134 | R16Y | -0.372 ± 0.064
135 | R16A | 0.218 ± 0.062
136 | R16I | 0.002 ± 0.054
137 | R16L | -0.015 ± 0.065
138 | S11R | -0.767 ± 0.21
139 | S11N | -0.399 ± 0.14
140 | S11P | -0.599 ± 0.2
141 | S11V | -0.597 ± 0.15
142 | S11Y | -0.267 ± 0.098
143 | S11D | -1.11 ± 0.25
144 | S11G | -0.283 ± 0.12

Row | Variant | abundance fitness
145 | S11C | -0.4 ± 0.1
146 | S11L | -0.857 ± 0.18
147 | S11I | -1.19 ± 0.27
148 | S11H | -1.37 ± 0.45
149 | S11F | -0.471 ± 0.096
150 | S11T | -0.602 ± 0.2
151 | R15T | -0.073 ± 0.085
152 | R15N | -0.527 ± 0.1
153 | R15Y | -0.081 ± 0.07
154 | R15M | -0.142 ± 0.2
155 | R15Q | -0.108 ± 0.18
156 | R15I | -0.267 ± 0.072
157 | R15D | -1.11 ± 0.21
158 | R15L | -0.445 ± 0.092
159 | R15V | -0.397 ± 0.077
160 | R15P | -1.1 ± 0.33
161 | R15F | -0.601 ± 0.1
162 | R15G | -0.397 ± 0.065
163 | R15C | -0.384 ± 0.076
164 | R15S | -0.154 ± 0.057
165 | R15E | 0.101 ± 0.17
166 | R15A | -0.217 ± 0.091
167 | R15K | -0.151 ± 0.15
